Laboratory results as given in article PMC4835703, “Cellular uptake of exogenous calcineurin B is dependent on TLR4/MD2/CD14 complexes, and CnB is an endogenous ligand of TLR4” (Scientific Reports, 2016).

Biological target: T1, recombinant calcineurin B (UniProt P63098 1-170)
T1 construct: calcineurin B (CnB), regulatory subunit of calcineurin; recombinant protein (rhCnB); also called CnB; rhCnB; source: provided by Haikou Qili Pharmaceutical Co., Ltd
Assay: MST; purified TLR4 ectodomain or soluble CD14 labelled with DyLight 488, 20 nM in MST buffer; CnB titrated in 16 1:1 dilutions; 10 min incubation; Monolith NT.115, 25 °C, 50% LED power, 20% MST power
Conditions: both partners purified

Kd: 1010 nM
B1: soluble CD14 (receptor)
chain: TTPEPCELDDEDFRCVCNFSEPQPDWSEAFQCVSAVEVEIHAGGLNLEPFLKRVDADADPRQYADTVKALRVRRLTVGAAQVPAQLLVGALRVLAYSRLKELTLEDLKITGTMPPLPLEATGLALSSLRLRNVSWATGRSWLAELQQWLKPGLKVLSIAQAHSPAFSCEQVRAFPALTSLDLSDNPGLGERGLMAALCPHKFPAIQNLALRNTGMETPTGVCAALAAAGVQPHSLDLSHNSLRATVNPSAPRCMWSSALNSLNLSFAGLEQVPKGLPAKLRVLDLSCNRLNRAPQPDELPEVDNLTLDGNPFLVPGTALPHEGSMN
modifications: labelled with DyLight 488 in the MST experiment and where it was the soluble partner in the ELISA; unlabelled where coated on the plate and in the co-IP
notes: CD14, soluble recombinant form; also called sCD14; purified soluble CD14; source: bought: Sino Biological, Inc
